B1: FAM122A [human (endogenous in HeLa)] / B55α WT (immunopurified, Fig. 2) [not stated] (parent complex)
chain 1: MAQEKMELDLELPPGTGGSPAEGGGSGGGGGLRRSNSAPLIHGLSDTSPVFQAEAPSARRNSTTFPSRHGLLLPASPVRMHSSRLHQIKQEEGMDLINRETVHEREVQTAMQISHSWEESFSLSDNDVEKSASPKRIDFIPVSPAPSPTRGIGKQCFSPSLQSFVSSNGLPPSPIPSPTTRFTTRRSQSPINCIRPSVLGPLKRKCEMETEYQPKRFFQGITNMLSSDVAQLSDPGVCVSSDTLDGNSSSAGSSCNSPAKVSTTTDSPVSPAQAASPFIPLDELSSK
chain 2: MAGAGGGNDIQWCFSQVKGAVDDDVAEADIISTVEFNHSGELLATGDKGGRVVIFQQEQENKIQSHSRGEYNVYSTFQSHEPEFDYLKSLEIEEKINKIRWLPQKNAAQFLLSTNDKTIKLWKISERDKRPEGYNLKEEDGRYRDPTTVTTLRVPVFRPMDLMVEASPRRIFANAHTYHINSISINSDYETYLSADDLRINLWHLEITDRSFNIVDIKPANMEELTEVITAAEFHPNSCNTFVYSSSKGTIRLCDMRASALCDRHSKLFEEPEDPSNRSFFSEIISSISDVKFSHSGRYMMTRDYLSVKIWDLNMENRPVETYQVHEYLRSKLCSLYENDCIFDKFECCWNGSDSVVMTGSYNNFFRMFDRNTKRDITLEASRENNKPRTVLKPRKVCASGKRKKDEISVDSLDFNKKILHTAWHPKENIIAVATTNNLYIFQDKVN
B2: PME1 (found with purified B55 variants) [human] / B55α WT (immunopurified, Fig. 2) [not stated] (parent complex)
chain 1: MSALEKSMHLGRLPSRPPLPGSGGSQSGAKMRMGPGRKRDFSPVPWSQYFESMEDVEVENETGKDTFRVYKSGSEGPVLLLLHGGGHSALSWAVFTAAIISRVQCRIVALDLRSHGETKVKNPEDLSAETMAKDVGNVVEAMYGDLPPPIMLIGHSMGGAIAVHTASSNLVPSLLGLCMIDVVEGTAMDALNSMQNFLRGRPKTFKSLENAIEWSVKSGQIRNLESARVSMVGQVKQCEGITSPEGSKSIVEGIIEEEEEDEEGSESISKRKKEDDMETKKDHPYTWRIELAKTEKYWDGWFRGLSNLFLSCPIPKLLLLAGVDRLDKDLTIGQMQGKFQMQVLPQCGHAVHEDAPDKVAEAVATFLIRHRFAEPIGGFQCVFPGC
chain 2: B1 chain 2
B3: CDCA4 (found with purified B55 variants) [human] / B55α WT (immunopurified, Fig. 2) [not stated] (parent complex)
chain 1: MFARGLKRKCVGHEEDVEGALAGLKTVSSYSLQRQSLLDMSLVKLQLCHMLVEPNLCRSVLIANTVRQIQEEMTQDGTWRTVAPQAAERAPLDRLVSTEILCRAAWGQEGAHPAPGLGDGHTQGPVSDLCPVTSAQAPRHLQSSAWEMDGPRENRGSFHKSLDQIFETLETKNPSCMEELFSDVDSPYYDLDTVLTGMMGGARPGPCEGLEGLAPATPGPSSSCKSDLGELDHVVEILVET
chain 2: B1 chain 2
B4: IER2 (found with purified B55 variants) [human] / B55α WT (immunopurified, Fig. 2) [not stated] (parent complex)
chain 1: MEVQKEAQRIMTLSVWKMYHSRMQRGGLRLHRSLQLSLVMRSARELYLSAKVEALEPEVSLPAALPSDPRLHPPREAESTAETATPDGEHPFPEPMDTQEAPTAEETSACCAPRPAKVSRKRRSSSLSDGGDAGLVPSKKARLEEKEEEEGASSEVADRLQPPPAQAEGAFPNLARVLQRRFSGLLNCSPAAPPTAPPACEAKPACRPADSMLNVLVRAVVAF
chain 2: B1 chain 2

Variants of: B1
Experiment: immunopurification of YFP-B55α variants (IP: YFP), Western blot quantification; read off a plot

Variant	percent of parent
chain 2 L225A	~130%
chain 2 D197A	~0%
chain 2 I284A	~97%
chain 2 D340A	~77%
chain 2 F343A	~90%
chain 2 F280A	~140%
chain 2 L198A	~0%
chain 2 S287A	~63%
chain 2 H179A	~70%

Now from value to variant:

percent of parent	Variant
~5%	chain 2 Y178A
~130%	chain 2 Y337A
~100%	chain 2 V228A
~93%	chain 2 T230A

Variants of: B2
Experiment: as above

Variant	percent of parent
chain 2 I284A	~13%
chain 2 L225A	~3%
chain 2 D197A	~3%
chain 2 F343A	~3%
chain 2 F280A	~130%
chain 2 L198A	~2%
chain 2 S287A	~4%
chain 2 D340A	~50%
chain 2 H179A	~170%

Results, then the variant that gave them:

percent of parent	Variant
~53%	chain 2 Y337A
~9%	chain 2 V228A
~3%	chain 2 T230A
~13%	chain 2 Y178A

Variants of: B3
Experiment: as above

Variant	percent of parent
chain 2 D197A	~80%
chain 2 I284A	~160%
chain 2 L225A	~75%
chain 2 D340A	~28%
chain 2 H179A	~93%
chain 2 L198A	~40%
chain 2 F343A	~28%
chain 2 F280A	~110%

Next, values leading:

percent of parent	Variant
~78%	chain 2 V228A
~90%	chain 2 Y178A
~58%	chain 2 T230A
~50%	chain 2 Y337A
~130%	chain 2 S287A

Variants of: B4
Experiment: as above

Variant	percent of parent
chain 2 F343A	~30%
chain 2 L198A	~3%
chain 2 D197A	~7%
chain 2 L225A	~25%
chain 2 D340A	~2%
chain 2 H179A	~140%
chain 2 I284A	~65%
chain 2 F280A	~83%

The remaining lines, values ahead:

percent of parent	Variant
~50%	chain 2 T230A
~55%	chain 2 Y178A
~70%	chain 2 V228A
~67%	chain 2 S287A
~2%	chain 2 Y337A
